The values that follow come from paper PMC6310132.

Assay in all cases: SPR
In general terms: Surface plasmon resonance follows binding to a sensor surface in real time, without labels.

For assay [1], the target named is trout saccular hair cell dopamine D1A4 carboxy terminus, pRSET-A fusion protein (trout).
Assay [2] addresses trout saccular hair cell otoferlin C2F domain, pRSET-A fusion protein (trout).
The target in assay [3] is trout saccular hair cell snapin, pRSET-A fusion protein (trout).
Assay [4] deals with N-ethylmaleimide-sensitive factor (NSF), pRSET-A fusion protein (mouse) (UniProt P46460).
In assay [5] the target is rat organ of Corti AP2mu1, pRSET-A fusion protein (SPR and Figure 7A,B) (rat) (UniProt P84092).

Sequence of N-ethylmaleimide-sensitive factor (NSF), pRSET-A fusion protein (mouse) (P46460 whole entry, the tested form may be a part): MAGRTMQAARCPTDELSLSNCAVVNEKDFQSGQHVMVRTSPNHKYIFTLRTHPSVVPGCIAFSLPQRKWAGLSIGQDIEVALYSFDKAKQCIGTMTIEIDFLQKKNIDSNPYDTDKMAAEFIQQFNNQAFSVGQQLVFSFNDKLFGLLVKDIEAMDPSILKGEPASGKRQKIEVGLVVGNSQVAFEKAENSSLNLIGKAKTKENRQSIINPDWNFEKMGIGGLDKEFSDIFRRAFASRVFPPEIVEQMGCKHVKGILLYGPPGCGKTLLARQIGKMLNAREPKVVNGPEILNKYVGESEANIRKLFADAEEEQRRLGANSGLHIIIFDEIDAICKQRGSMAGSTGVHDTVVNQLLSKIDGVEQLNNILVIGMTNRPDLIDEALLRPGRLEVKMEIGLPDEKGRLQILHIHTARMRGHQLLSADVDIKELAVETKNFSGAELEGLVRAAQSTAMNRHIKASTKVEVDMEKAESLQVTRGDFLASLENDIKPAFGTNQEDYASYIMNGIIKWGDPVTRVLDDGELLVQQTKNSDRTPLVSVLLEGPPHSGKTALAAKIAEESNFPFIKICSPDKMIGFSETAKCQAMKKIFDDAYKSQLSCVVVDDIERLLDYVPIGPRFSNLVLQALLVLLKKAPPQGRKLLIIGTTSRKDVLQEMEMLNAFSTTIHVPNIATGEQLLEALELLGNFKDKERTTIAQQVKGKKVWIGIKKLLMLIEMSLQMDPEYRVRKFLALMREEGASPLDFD

As to “trout saccular hair cell snapin, pRSET-A fusion protein (domain or fragment)”, in assay [1], the Kd was 26.9 nM and the koff came out at 0.00784 s⁻¹. Further, in assay [2], the Kd turned out to be 23.4 nM and the koff stood at 0.00348 s⁻¹.
In assay [3], “trout saccular hair cell dopamine D1A4 carboxy terminus, pRSET-A fusion protein (domain or fragment)” yielded a dissociation constant (Kd) of 14.6 nM and a koff of 0.00174 s⁻¹.
On the same counts, the results for “trout saccular hair cell otoferlin C2F domain, pRSET-A fusion protein (domain or fragment)” are 13 nM and 0.00407 s⁻¹.
With “rat organ of Corti otoferlin C2F domain, pRSET-A fusion protein used for SPR (domain or fragment)”, in assay [4], the Kd turned out to be 2.29 nM and the koff came out at 0.00073 s⁻¹. In assay [5], this substance had a Kd of 129 nM, a koff of 0.00273 s⁻¹ and a kon of 21200 M⁻¹ s⁻¹.

A word on the Kd: it is a measure of binding affinity in units of concentration. The term koff denotes a measure of how fast the partners let go of each other. Higher therefore signals fast dissociation. As a reminder, the kon is a measure of how fast the partners come together. Read a low kon as slower complex formation.
